Patent US12742015 (dated 2026)

T1: OX40 on T cells (human, UniProt P43489)
T1 chain: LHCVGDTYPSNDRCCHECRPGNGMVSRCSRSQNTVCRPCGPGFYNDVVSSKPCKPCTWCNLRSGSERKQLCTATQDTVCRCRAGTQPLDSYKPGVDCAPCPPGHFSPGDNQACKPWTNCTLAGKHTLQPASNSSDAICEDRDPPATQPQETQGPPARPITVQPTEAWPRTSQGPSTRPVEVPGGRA

T2: FcγRIIb (human, UniProt P31994)
T2 chain: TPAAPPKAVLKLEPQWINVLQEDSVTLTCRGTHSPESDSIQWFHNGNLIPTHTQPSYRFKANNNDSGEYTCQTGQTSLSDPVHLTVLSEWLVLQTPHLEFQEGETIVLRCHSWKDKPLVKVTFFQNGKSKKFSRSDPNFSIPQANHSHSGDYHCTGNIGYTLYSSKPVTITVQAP

T3: FcγRIIa 167R (human, UniProt P12318)
T3 chain: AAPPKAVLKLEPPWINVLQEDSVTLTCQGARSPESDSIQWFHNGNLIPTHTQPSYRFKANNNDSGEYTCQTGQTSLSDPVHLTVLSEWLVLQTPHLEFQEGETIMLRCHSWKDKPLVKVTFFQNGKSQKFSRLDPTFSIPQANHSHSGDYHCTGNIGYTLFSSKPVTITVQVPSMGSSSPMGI


Experiments:
[1] = biological target: T1, OX40 on T cells; experiment: other, CD8+ T cells, apparent affinity
[2] = biological target: T1, OX40 on T cells; experiment: other, CD4+ T cells, apparent affinity
[3] = biological target: FcRn (human, UniProt P55899); experiment: SPR, pH 7.4
[4] = biological target: T2, FcγRIIb; experiment: SPR
[5] = biological target: T3, FcγRIIa 167R; experiment: SPR

Kd [1] [nM] | Kd [2] [nM] | binding result [3] | binding result [4] | binding result [5] | Binder
– | – | no binding | no binding | no binding | MAB10 full (antibody) chain 1: QVTLKESGPALVKPTQTLTLTCSFSGFSLSTSGMGVGWIRQPPGKALEWIAHIWWDDDKYYNTALKTRLTISKDTSKNQVVLTMTNMDPVDTATYYCARIDWDGFAYWGQGTLVTVSSASTKGPSVFPLAPSSKSTSGGTAALGCLVKDYFPEPVTVSWNSGALTSGVHTFPAVLQSSGLYSLSSVVTVPSSSLGTQTYICNVNHKPSNTKVDKKVEPKSCDKTHTCPPCPAPELLGGPSVFLFPPKPKDTLYITREPEVTCVVVDVSHEDPEVKFNWYVDGVEVHNAKTKPREEQYNSTYRVVSVLTVLHQDWLNGKEYKCKVSNKALPAPIEKTISKAKGQPREPQVYTLPPSRDELTKNQVSLTCLVKGFYPSDIAVEWESNGQPENNYKTTPPVLDSDGSFFLYSKLTVDKSRWQQGNVFSCSVMHEALHNHYTQKSLSLSPGK chain 2: EIVLTQSPATLSLSPGERATLSCRASSSVSYMHWYQQKPGQAPRPWIYATSNRATGIPARFSGSGSGTDYTLTISSLEPEDFAVYYCQQFGAWPWTFGQGTKVEIKRTVAAPSVFIFPPSDEQLKSGTASVVCLLNNFYPREAKVQWKVDNALQSGNSQESVTEQDSKDSTYSLSSTLTLSKADYEKHKVYACEVTHQGLSSPVTKSFNRGEC
– | – | no binding | – | – | MAB1 full (antibody) chain 1: not shown chain 2: EIVLTQSPATLSLSPGERATLSCRASSSVSYMHWYQQKPGQAPRPWIYATSNRATGIPARFSGSGSGTDYTLTISSLEPEDFAVYYCQQFGAWPWTFGQGTKVEIKRTVAAPSVFIFPPSDEQLKSGTASVVCLLNNFYPREAKVQWKVDNALQSGNSQESVTEQDSKDSTYSLSSTLTLSKADYEKHKVYACEVTHQGLSSPVTKSFNRGEC

Second part, the binder before the results:

Binder | Kd [1] [nM] | Kd [2] [nM] | binding result [3] | binding result [4] | binding result [5]
GBR 830 (OX40 binding) (antibody, V domains shown) VH: QVTLKESGPALVKPTQTLTLTCSFSGFSLSTSGMGVGWIRQPPGKALEWIAHIWWDDDKYYNTALKTRLTISKDTSKNQVVLTMTNMDPVDTATYYCARIDWDGFAYWGQGTLVTVSS VL: EIVLTQSPATLSLSPGERATLSCRASSSVSYMHWYQQKPGQAPRPWIYATSNRATGIPARFSGSGSGTDYTLTISSLEPEDFAVYYCQQWSSNPWTFGQGTKVEIK | 3.46 | 1.25 | – | – | –
GBR 830 full (antibody) chain 1: not shown chain 2: EIVLTQSPATLSLSPGERATLSCRASSSVSYMHWYQQKPGQAPRPWIYATSNRATGIPARFSGSGSGTDYTLTISSLEPEDFAVYYCQQWSSNPWTFGQGTKVEIKRTVAAPSVFIFPPSDEQLKSGTASVVCLLNNFYPREAKVQWKVDNALQSGNSQESVTEQDSKDSTYSLSSTLTLSKADYEKHKVYACEVTHQGLSSPVTKSFNRGEC | – | – | no binding | – | –
